Data: article PMC7870846, “Incorporation of sensing modalities into de novo designed fluorescence-activating proteins” (Nature Communications, 2021)

What was measured:
[1] = target: MBP-tagged split mFAP fragment m12; assay: split reporter (BiFC, NanoBiT); protein-fragment complementation in vitro: complementary MBP-fused split mFAP fragments mixed at equimolar concentration with excess DFHBI-1T (1.00 uL of 1.25 mM in 25.0 uL); fluorescence endpoint ex 478 nm, em 520 nm; background without protein
[2] = target: MBP-tagged split mFAP fragment m12; assay: other fluorescence titration; MBP-tagged fragment titrated into its complementary MBP-tagged fragment; 25.0 uM DFHBI-1T; high-salt Tev cleavage buffer (25.0 mM Tris, 100 mM NaCl, pH 8.00); ex 468 nm, em 530 nm; estimated Kd, signal did not plateau

B1: MBP-tagged split mFAP fragment m38 (domain or fragment)
chain: YTMDIVAQGTISDGRPIVGYGKATVKTPDTLDIDITYPSLGNIKAQGQITMDSPTQFKWDATTKGENDFHGRLTGTLQRQE
modifications: here or on the partner: strands 3-8; cut assumed in loop2 (34/35); MBP omitted / strands 1-2 of mFAP2a; cut assumed in loop2 (34/35, as in cp35-34); exact limits are in Supplementary Data 1, not shown; MBP omitted
- fold mean fluorescence intensity over background [1]: 7.34 fold
- fold mean fluorescence intensity over the combination m1 and m28 [1]: 184 fold
- Kd [2]: > 281 µM
